Test results reported in patent US5908827, “Protein from urine named component B” (Applied Research Systems ARS Holding N.V., dated 1999).

Biological target: TGF-alpha receptor obtained from A 431 cell membranes (Homo sapiens (Human), UniProt P00533)
Assay: displacement of I^125-TGF-alpha from its receptor on A 431 cell membranes (radioligand competition)

- Ki: 0.077 nM
B1: Component B (other)
chain: LKCYTCKEPMTSASCRTITRCKPEDTACMTTLVTVEAEYPFNQSPVVTRSCSSSCVATDPDSIGAAHLIFCCFRDLCNSEL
modifications: SO4 group bound to Tyr (39); five disulfide bridges (urinary material)
